Consider two molecules from publication PMC2654182 (Biochemistry, 2008).

Sequences and labels used below:
T1: BARD1 (423-777) (human, UniProt Q99728 423-777)
T1 sequence (looked up): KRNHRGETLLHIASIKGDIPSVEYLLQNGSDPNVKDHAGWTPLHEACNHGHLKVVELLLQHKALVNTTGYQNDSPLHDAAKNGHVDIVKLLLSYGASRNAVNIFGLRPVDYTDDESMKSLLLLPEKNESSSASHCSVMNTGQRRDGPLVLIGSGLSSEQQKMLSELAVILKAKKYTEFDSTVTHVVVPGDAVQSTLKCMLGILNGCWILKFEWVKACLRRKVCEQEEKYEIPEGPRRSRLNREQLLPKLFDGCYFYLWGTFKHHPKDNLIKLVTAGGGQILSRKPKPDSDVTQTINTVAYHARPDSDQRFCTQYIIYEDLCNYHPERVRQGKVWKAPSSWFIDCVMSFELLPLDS

B1: GST-CstF-50 (92-431) (domain or fragment, human, UniProt Q05048 92-431, looked up)
chain: MSPEASEYETCYVTSHKGPCRVATYSRDGQLIATGSADASIKILDTERMLAKSAMPIEVMMNETAQQNMENHPVIRTLYDHVDEVTCLAFHPTEQILASGSRDYTLKLFDYSKPSAKRAFKYIQEAEMLRSISFHPSGDFILVGTQHPTLRLYDINTFQCFVSCNPQDQHTDAICSVNYNSSANMYVTGSKDGCIKLWDGVSNRCITTFEKAHDGAEVCSAIFSKNSKYILSSGKDSVAKLWEISTGRTLVRYTGAGLSGRQVHRTQAVFNHTEDYVLLPDERTISLCCWDSRTAERRNLLSLGHNNIVRCIVHSPTNPGFMTCSDDFRARFWYRRSTTD
B2: BARD1 (554-777) (domain or fragment, human, UniProt Q99728 554-777, looked up)
chain: ASHCSVMNTGQRRDGPLVLIGSGLSSEQQKMLSELAVILKAKKYTEFDSTVTHVVVPGDAVQSTLKCMLGILNGCWILKFEWVKACLRRKVCEQEEKYEIPEGPRRSRLNREQLLPKLFDGCYFYLWGTFKHHPKDNLIKLVTAGGGQILSRKPKPDSDVTQTINTVAYHARPDSDQRFCTQYIIYEDLCNYHPERVRQGKVWKAPSSWFIDCVMSFELLPLDS

For one test, the target named is T1, BARD1 (423-777). In words: pull-down.
The test “GST-CstF-50 (92-431)” has as its target B1. In words: pull-down.

Turning to B1, the binding result in the test with BARD1 (423-777) is listed as “binds”. Turning to B2, the binding result with GST-CstF-50 (92-431) was “binds”.
